From patent US20160033523A1 (NOVOZYMES BIOPHARMA DK A S, published 2016)

B3: Wild type pig serum albumin (ligand)
chain: DTYKSEIAHRFKDLGEQYFKGLVLIAFSQHLQQCPYEEHVKLVREVTEFAKTCVADESAENCDKSIHTLFGDKLCAIPSLREHYGDLADCCEKEEPERNECFLQHKNDNPDIPKLKPDPVALCADFQEDEQKFWGKYLYEIARRHPYFYAPELLYYAIIYKDVFSECCQAADKAACLLPKIEHLREKVLTSAAKQRLKCASIQKFGERAFKAWSLARLSQRFPKADFTEISKIVTDLAKVHKECCHGDLLECADDRADLAKYICENQDTISTKLKECCDKPLLEKSHCIAEAKRDELPADLNPLEHDFVEDKEVCKNYKEAKHVFLGTFLYEYSRRHPDYSVSLLLRIAKIYEATLEDCCAKEDPPACYATVFDKFQPLVDEPKNLIKQNCELFEKLGEYGFQNALIVRYTKKVPQVSTPTLVEVARKLGLVGSRCCKRPEEERLSCAEDYLSLVLNRLCVLHEKTPVSEKVTKCCTESLVNRRPCFSALTPDETYKPKEFVEGTFTFHADLCTLPEDEKQIKKQTALVELLKHKPHATEEQLRTVLGNFAAFVQKCCAAPDHEACFAVEGPKFVIEIRGILA
notes: also called PSA; pig SA

What was measured:
[1] = target: T1, Wild type human serum albumin (human, UniProt P02768 25-609); experiment: SPR, albumin over immobilized His-FcRn, pH 5.5, steady state
T1 construct: also called HSA; HSA Wt
T1 sequence (P02768 25-609): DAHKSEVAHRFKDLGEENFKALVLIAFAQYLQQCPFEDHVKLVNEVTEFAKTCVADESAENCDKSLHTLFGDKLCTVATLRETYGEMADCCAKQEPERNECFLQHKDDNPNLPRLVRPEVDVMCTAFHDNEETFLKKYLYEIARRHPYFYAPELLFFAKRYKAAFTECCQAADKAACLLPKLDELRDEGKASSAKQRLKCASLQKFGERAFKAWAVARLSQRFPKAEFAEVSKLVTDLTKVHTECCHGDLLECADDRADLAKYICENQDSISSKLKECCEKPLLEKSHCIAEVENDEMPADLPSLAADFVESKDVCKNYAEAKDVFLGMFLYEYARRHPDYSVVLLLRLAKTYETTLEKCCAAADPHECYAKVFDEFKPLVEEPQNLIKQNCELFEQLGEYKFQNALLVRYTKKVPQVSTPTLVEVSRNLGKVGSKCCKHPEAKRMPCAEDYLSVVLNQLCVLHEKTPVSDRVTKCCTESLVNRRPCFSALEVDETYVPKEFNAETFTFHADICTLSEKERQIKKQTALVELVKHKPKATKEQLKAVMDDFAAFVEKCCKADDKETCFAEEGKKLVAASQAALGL
Procedure: (§1) SPR experiments were carried out using a Biacore 3000 instrument (GE Healthcare). Flow cells of CM5 sensor chips were coupled with soluble FcRn from one of the following species, human (shFcRn), rat (srFcRn), mouse (smFcRn), rhesus monkey (srmFcRn), dog (dFcRn) or pig (pFcRn) (˜900-2500 resonance units (RU)) using GE Healthcare amine coupling chemistry as per the manufacturer's instructions. The coupling was performed by injecting 2 or 10 μg/ml FcRn in 10 mM sodium acetate pH 5.0 (GE healthcare). Phosphate buffer (67 mM phosphate buffer, 0.15 M NaCl, 0.005% Tween 20) at pH 6.0) was used as running buffer and dilution buffer. Regeneration of the surfaces were done using injections of HBS-EP buffer (0.01 M HEPES, 0.15 M NaCl, 3 mM EDTA, 0.005% surfactant P20) at pH 7.4 (GE Healthcare). For determination of binding kinetics, serial dilutions of albumin (10-0.3 μM) were injected over immobilized receptors at a constant flow rate (50 μl/min) at 25° C. In all experiments, data were zero adjusted and the reference cell subtracted.
(§2) The SPR assay was conducted with the following variations to the assay described in the Materials and Method section:
(§3) The soluble FcRn receptors were synthesized by GeneArt and expressed in HEK cells. The soluble FcRn contained a HIS-tag on the C-terminal of the Beta-chain instead of a GST on the heavy chain and the beta-chain used was the native beta-chain of the animal (see Materials and Method section for the corresponding sequences). The soluble FcRn was purified by a HIS trap column followed by an additional purification using an IgG column. The soluble FcRn receptor was diluted to 20 μg/mL. The phosphate buffer used as running buffer in the SPR assay was at pH 5.5 instead of pH 6.0. […] 1:1 Langmuir or Steady state model was used.

[2] = target: T2, N-terminally c-myc tagged Wt HSA (human, UniProt P02768 25-609); experiment: as above
T2 construct: Secreted from yeast; a +2058 Da miscleaved leader species was reduced to below 5%; also called c-myc-HSA Wt; Cmyc-WT HSA
T2 sequence (P02768 other isoform, or with tags, fused parts or gaps): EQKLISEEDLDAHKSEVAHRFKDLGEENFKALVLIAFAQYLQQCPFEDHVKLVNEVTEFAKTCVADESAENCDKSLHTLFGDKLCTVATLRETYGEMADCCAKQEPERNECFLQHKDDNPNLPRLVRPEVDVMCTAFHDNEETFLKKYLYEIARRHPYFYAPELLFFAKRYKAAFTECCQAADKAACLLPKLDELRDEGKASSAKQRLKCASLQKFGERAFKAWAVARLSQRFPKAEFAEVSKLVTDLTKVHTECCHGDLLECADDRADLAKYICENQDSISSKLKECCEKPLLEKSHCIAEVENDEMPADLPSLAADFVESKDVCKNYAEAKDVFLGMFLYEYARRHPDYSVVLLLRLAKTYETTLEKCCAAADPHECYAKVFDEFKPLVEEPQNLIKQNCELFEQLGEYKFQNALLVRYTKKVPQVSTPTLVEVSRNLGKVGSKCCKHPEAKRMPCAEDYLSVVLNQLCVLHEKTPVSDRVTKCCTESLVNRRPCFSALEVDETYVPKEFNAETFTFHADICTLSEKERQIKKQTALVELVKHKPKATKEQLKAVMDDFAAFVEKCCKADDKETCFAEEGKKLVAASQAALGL
Procedure: as §1, §2, §3

[3] = target: B3; experiment: as above
Procedure: as §1, §2, §3

[4] = target: T3, N-terminally c-myc tagged albumin variant K573P (human, UniProt P02768 25-609); experiment: SPR, albumin over immobilized His-FcRn, pH 5.5, 1:1 Langmuir
T3 construct: Substitution numbered on mature HSA, not on the tagged chain; also called c-myc-K573P
T3 sequence (P02768 other isoform, or with tags, fused parts or gaps K573P K573P): as the sequence (P02768 other isoform, or with tags, fused parts or gaps) above, with K583P counted along it
Procedure: as §1, §2, §3

HSA K573P = target: T4, HSA K573P (human, UniProt P02768 25-609); experiment: as above
T4 construct: Variant of mature HSA
T4 sequence (P02768 25-609 K597P): as the sequence (P02768 25-609) above, with K573P counted along it
Procedure: as §1, §2, §3

[5] = target: T5, Soluble guinea pig FcRn with guinea pig beta2-microglobulin, HIS-tagged (guinea pig, UniProt P01886 1-99); experiment: as above
T5 construct: Synthesized by GeneArt, expressed in HEK cells; also called gpFcRn; gpFcRN; not shown: HIS-tag on the C-terminal of the beta-chain
T5 sequence: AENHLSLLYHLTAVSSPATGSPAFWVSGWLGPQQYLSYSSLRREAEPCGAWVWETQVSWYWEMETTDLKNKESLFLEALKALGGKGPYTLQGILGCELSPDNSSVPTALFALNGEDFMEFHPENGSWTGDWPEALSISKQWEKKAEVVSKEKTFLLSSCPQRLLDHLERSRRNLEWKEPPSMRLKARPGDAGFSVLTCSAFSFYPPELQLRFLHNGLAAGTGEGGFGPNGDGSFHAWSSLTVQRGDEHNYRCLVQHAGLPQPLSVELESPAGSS
T5 sequence (b2m): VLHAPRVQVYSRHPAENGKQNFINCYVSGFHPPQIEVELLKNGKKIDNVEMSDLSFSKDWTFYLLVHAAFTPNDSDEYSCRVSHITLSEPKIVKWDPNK
Procedure: as §1, §2, §3

[6] = target: T6, Soluble pig FcRn, GST-tagged, with human beta2-microglobulin (Example 2) (pig; Schistosoma japonicum; human, UniProt P08515 1-218 = GST); experiment: SPR, albumin over immobilized GST-FcRn, pH 6.0, 1:1 model
T6 construct: also called pFcRn; spFcRn
Procedure: as §1

[7] = target: T7, Soluble dog FcRn, GST-tagged, with human beta2-microglobulin (dog; Schistosoma japonicum; human, UniProt P08515 1-218 = GST); experiment: SPR, albumin over immobilized GST-FcRn, pH 6.0, estimated from steady state
T7 construct: also called dFcRn
Procedure: as §1

[8] = target: T8, Soluble mouse FcRn, GST-tagged, with human beta2-microglobulin (mouse; Schistosoma japonicum; human, UniProt P08515 1-218 = GST); experiment: SPR, albumin over immobilized GST-FcRn, pH 6.0, steady state
T8 construct: also called smFcRn
Procedure: as §1

[9] = target: T9, Soluble rat FcRn, GST-tagged, with human beta2-microglobulin (rat; Schistosoma japonicum; human, UniProt P08515 1-218 = GST); experiment: as above
T9 construct: also called srFcRn
Procedure: as §1

[10] = target: T10, Soluble rhesus monkey FcRn, GST-tagged, with human beta2-microglobulin (rhesus monkey; Schistosoma japonicum; …, UniProt P08515 1-218 = GST); experiment: SPR, albumin over immobilized GST-FcRn, pH 6.0, 1:1 model
T10 construct: also called srmFcRn; soluble rhesus macaque FcRn
Procedure: as §1

[11] = target: T7, Soluble dog FcRn, GST-tagged, with …; experiment: as above
Procedure: as §1

[12] = target: T8, Soluble mouse FcRn, GST-tagged, with …; experiment: as above
Procedure: as §1

[13] = target: T9, Soluble rat FcRn, GST-tagged, with …; experiment: as above
Procedure: as §1

[14] = target: T11, Wild type cynomolgus macaque serum albumin (cynomolgus macaque, UniProt A2V9Z4 24-608); experiment: SPR, albumin over immobilized His-FcRn, pH 5.5, 1:1 Langmuir
T11 construct: also called CSA; native cyno albumin
T11 sequence (A2V9Z4 24-608): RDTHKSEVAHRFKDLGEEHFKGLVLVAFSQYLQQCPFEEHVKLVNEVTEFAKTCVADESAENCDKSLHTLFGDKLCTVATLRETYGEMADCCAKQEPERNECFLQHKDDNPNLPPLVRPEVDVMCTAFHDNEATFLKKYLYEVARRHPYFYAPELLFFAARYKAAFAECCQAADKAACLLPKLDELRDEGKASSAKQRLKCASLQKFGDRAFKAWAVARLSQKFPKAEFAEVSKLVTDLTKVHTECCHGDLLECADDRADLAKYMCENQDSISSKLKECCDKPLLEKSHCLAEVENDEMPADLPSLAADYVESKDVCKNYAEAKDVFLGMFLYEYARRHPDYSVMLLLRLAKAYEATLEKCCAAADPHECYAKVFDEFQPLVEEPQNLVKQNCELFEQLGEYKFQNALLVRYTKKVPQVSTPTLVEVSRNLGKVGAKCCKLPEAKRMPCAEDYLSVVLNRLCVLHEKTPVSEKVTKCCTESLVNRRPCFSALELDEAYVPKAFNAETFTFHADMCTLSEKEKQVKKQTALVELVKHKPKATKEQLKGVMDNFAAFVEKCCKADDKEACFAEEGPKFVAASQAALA
Procedure: as §1, §2, §3

B1: Soluble pig FcRn with pig beta2-microglobulin, HIS-tagged (Example 4) (receptor)
chain: ADNHRSLLYHLTAVSAPTPGAPAFWVSGWLGPQQYLSYNNLRAQAEPYGAWVWESQVSWYWEKETADLRNKQKLFLEALKTLEEGGPFTLQGLLGCELGPDNVSVPVATFALNGEEFMKFDTKLGTWDGEWPEARTIGSKWMQEPDAVNKEKTFLLYSCPHRLLGHLERGRGNLEWKEPPSMRMKARPGTAPGFSVLTCIAFSFYPPELQLRFLRNGLAAGSGESDIGPNGDGSFHAWSSLTVKSGDEHHYCCVVQHAGLAQPLTVEL
b2m: VARPPKVQVYSRHPAENGKPNYLNCYVSGFHPPQIEIDLLKNGEKMNAEQSDLSFSKDWSFYLLVHTEFTPNAVDQYSCRVKHVTLDKPKIVKWDRDH
notes: also called pFcRn; not shown: HIS-tag on the C-terminal of the beta-chain
Binder B1 has a Kd [1] of 232 µM, a Kd [2] of 468 µM and a Kd [3] of 210 µM. It also gave a Kd [4] of 1.3 µM, a koff [4] of 0.0401 s⁻¹ and a kon [4] of 31200 M⁻¹ s⁻¹. It also gave a Kd (HSA K573P) of 1.9 µM, a koff (HSA K573P) of 0.0622 s⁻¹ and a kon (HSA K573P) of 32700 M⁻¹ s⁻¹.

B2: Wild type guinea pig serum albumin (ligand)
chain: EAHKSEIAHRFNDLGEGHFKGLVLITLSQHLQKSPFEEHVKLVNEVTDFAKACVADESAQNCGKAIATLFGDKVCAIPSLRETYGELADCCAKEDPDRVECFLQHKDDNPNLPPFERPEPEALCTAFKENNDRFIGHYLYEVSRRHPYFYAPELLYYAEKYKNALTECCEAADKAACLTPKLDAIKEKALVSSAQQRLKCASLQKFGERAFKAWSVARLSQKFPKAEFAEISTIVTSLTKVTKECCHGDLLECADDRQELAKYMCEHQDSISSKLKECCVKPTLQKAHCILEIQRDELPTELPDLAVDFVEDKEVCKNFAEAKDVFLGTFLYEYSRRHPEYSIGMLLRIAKGYEAKLEKCCAEADPHACYAKVFDELQPLIDEPKKLVQQNCELFDKLGEYGFQNALAVRYTQKAPQVSTPTLVEYARKLGSVGTKCCSLPETERLSCTENYLALILNRLCILHEKTPVSERVTKCCTESLVNRRPCFSALHVDETYVPKPFHADSFTFHADICTLPEKEKQVKKQMALVELVKHKPKASEEQMKTVMGDFAAFLKKCCDADNKEACFTEDGPKLVAKCQATLA
notes: also called GPSA; guinea pig SA
Binder B2 has a Kd [5] of 1.1 µM, a koff [5] of 0.0419 s⁻¹ and a kon [5] of 36200 M⁻¹ s⁻¹.

Binder B3 has a Kd [6] of 2.7 µM, a koff [6] of 0.053 s⁻¹ and a kon [6] of 20000 M⁻¹ s⁻¹. The Kd [7] was 23 µM.

B4: Wild type rat serum albumin (ligand)
chain: EAHKSEIAHRFKDLGEQHFKGLVLIAFSQYLQKCPYEEHIKLVQEVTDFAKTCVADENAENCDKSIHTLFGDKLCAIPKLRDNYGELADCCAKQEPERNECFLQHKDDNPNLPPFQRPEAEAMCTSFQENPTSFLGHYLHEVARRHPYFYAPELLYYAEKYNEVLTQCCTESDKAACLTPKLDAVKEKALVAAVRQRMKCSSMQRFGERAFKAWAVARMSQRFPNAEFAEITKLATDVTKINKECCHGDLLECADDRAELAKYMCENQATISSKLQACCDKPVLQKSQCLAEIEHDNIPADLPSIAADFVEDKEVCKNYAEAKDVFLGTFLYEYSRRHPDYSVSLLLRLAKKYEATLEKCCAEGDPPACYGTVLAEFQPLVEEPKNLVKTNCELYEKLGEYGFQNAVLVRYTQKAPQVSTPTLVEAARNLGRVGTKCCTLPEAQRLPCVEDYLSAILNRLCVLHEKTPVSEKVTKCCSGSLVERRPCFSALTVDETYVPKEFKAETFTFHSDICTLPDKEKQIKKQTALAELVKHKPKATEDQLKTVMGDFAQFVDKCCKAADKDNCFATEGPNLVARSKEALA
notes: also called RSA; RSA Wt
For B4, the Kd [8] was 2.6 µM, the Kd [9] was 4.1 µM and the Kd [6] was 6.4 µM. It also gave a koff [6] of 0.071 s⁻¹, a kon [6] of 11000 M⁻¹ s⁻¹ and a Kd [10] of 2.2 µM. For the same binder, the koff [10] was 0.0101 s⁻¹, the kon [10] was 4500 M⁻¹ s⁻¹ and the Kd [11] was 5.8 µM. The koff [11] was 0.048 s⁻¹, the kon [11] was 8300 M⁻¹ s⁻¹ and the Kd [12] was 2.6 µM. The koff [12] was 0.0341 s⁻¹, the kon [12] was 13000 M⁻¹ s⁻¹ and the Kd [13] was 3.2 µM. The koff [13] was 0.026 s⁻¹ and the kon [13] was 7600 M⁻¹ s⁻¹.

B5: Soluble cynomolgus macaque FcRn with cynomolgus beta2-microglobulin, HIS-tagged (receptor)
chain: AESHLSLLYHLTAVSSPAPGTPAFWVSGWLGPQQYLSYDSLRGQAEPCGAWVWENQVSWYWEKETTDLRIKEKLFLEAFKALGGKGPYTLQGLLGCELSPDNTSVPTAKFALNGEEFMNFDLKQGTWGGDWPEALAISQRWQQQDKAANKELTFLLFSCPHRLREHLERGRGNLEWKEPPSMRLKARPGNPGFSVLTCSAFSFYPPELQLRFLRNGMAAGTGQGDFGPNSDGSFHASSSLTVKSGDEHHYCCIVQHAGLAQPLRVELETPAKSS
b2m: IQRTPKIQVYSRHPPENGKPNFLNCYVSGFHPSDIEVDLLKNGEKMGKVEHSDLSFSKDWSFYLLYYTEFTPNEKDEYACRVNHVTLSGPRTVKWDRDM
notes: Synthesized by GeneArt, expressed in HEK cells; also called CynoFcRn; Cyno FcRn; not shown: HIS-tag on the C-terminal of the beta-chain
B5 gave a Kd [14] of 35 µM.
